{"source": "paper PMC11208175", "proteins": {"B1": {"name": "PitA (Escherichia coli K-12) (protein)", "chain": "MLHLFAGLDLHTGLLLLLALAFVLFYEAINGFHDTANAVATVIYTRAMRSQLAVVMAAVFNFLGVLLGGLSVAYAIVHMLPTDLLLNMGSSHGLAMVFSMLLAAIIWNLGTWYFGLPASSSHTLIGAIIGIGLTNALMTGTSVVDALNIPKVLSIFGSLIVSPIVGLVFAGGLIFLLRRYWSGTKKRARIHLTPAEREKKDGKKKPPFWTRIALILSAIGVAFSHGANDGQKGIGLVMLVLIGVAPAGFVVNMNATGYEITRTRDAINNVEAYFEQHPALLKQATGADQLVPAPEAGATQPAEFHCHPSNTINALNRLKGMLTTDVESYDKLSLDQRSQMRRIMLCVSDTIDKVVKMPGVSADDQRLLKKLKSDMLSTIEYAPVWIIMAVALALGIGTMIGWRRVATTIGEKIGKKGMTYAQGMSAQMTAAVSIGLASYTGMPVSTTHVLSSSVAGTMVVDGGGLQRKTVTSILMAWVFTLPAAVLLSGGLYWLSLQFL"}}, "substrate": "O=P(O)(O)O", "assay": "cells, lysate or membranes", "settings": "whole-cell transport in C. crescentus delta-pstS expressing pitA, 0.1-20 µM phosphate, 37 °C, labelled compound (33P tracer)", "data": [{"protein": "B1", "values": [{"measurement": "Km", "result": 1.9, "unit": "µM"}]}]}
